In IntAct's records for PubMed 15652484:

Target: erp44_mouse Erp44 (UniProt Q9D1Q6)
Sequence (Q9D1Q6 whole entry): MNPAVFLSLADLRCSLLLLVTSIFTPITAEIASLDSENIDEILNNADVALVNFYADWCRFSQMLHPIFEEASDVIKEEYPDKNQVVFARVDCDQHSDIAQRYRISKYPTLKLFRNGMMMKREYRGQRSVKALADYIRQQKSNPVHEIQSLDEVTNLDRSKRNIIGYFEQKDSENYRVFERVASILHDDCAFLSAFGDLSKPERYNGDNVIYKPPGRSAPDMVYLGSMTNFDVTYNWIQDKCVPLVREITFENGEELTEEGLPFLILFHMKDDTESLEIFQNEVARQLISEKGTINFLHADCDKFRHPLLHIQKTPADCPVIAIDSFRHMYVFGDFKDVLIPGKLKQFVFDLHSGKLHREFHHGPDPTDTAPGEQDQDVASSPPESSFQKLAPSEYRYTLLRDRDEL

Chain of Inositol 1,4,5-trisphosphate-gated calcium channel ITPR1 (Mus musculus), P11881 C2496S (P11881 whole entry C2496S): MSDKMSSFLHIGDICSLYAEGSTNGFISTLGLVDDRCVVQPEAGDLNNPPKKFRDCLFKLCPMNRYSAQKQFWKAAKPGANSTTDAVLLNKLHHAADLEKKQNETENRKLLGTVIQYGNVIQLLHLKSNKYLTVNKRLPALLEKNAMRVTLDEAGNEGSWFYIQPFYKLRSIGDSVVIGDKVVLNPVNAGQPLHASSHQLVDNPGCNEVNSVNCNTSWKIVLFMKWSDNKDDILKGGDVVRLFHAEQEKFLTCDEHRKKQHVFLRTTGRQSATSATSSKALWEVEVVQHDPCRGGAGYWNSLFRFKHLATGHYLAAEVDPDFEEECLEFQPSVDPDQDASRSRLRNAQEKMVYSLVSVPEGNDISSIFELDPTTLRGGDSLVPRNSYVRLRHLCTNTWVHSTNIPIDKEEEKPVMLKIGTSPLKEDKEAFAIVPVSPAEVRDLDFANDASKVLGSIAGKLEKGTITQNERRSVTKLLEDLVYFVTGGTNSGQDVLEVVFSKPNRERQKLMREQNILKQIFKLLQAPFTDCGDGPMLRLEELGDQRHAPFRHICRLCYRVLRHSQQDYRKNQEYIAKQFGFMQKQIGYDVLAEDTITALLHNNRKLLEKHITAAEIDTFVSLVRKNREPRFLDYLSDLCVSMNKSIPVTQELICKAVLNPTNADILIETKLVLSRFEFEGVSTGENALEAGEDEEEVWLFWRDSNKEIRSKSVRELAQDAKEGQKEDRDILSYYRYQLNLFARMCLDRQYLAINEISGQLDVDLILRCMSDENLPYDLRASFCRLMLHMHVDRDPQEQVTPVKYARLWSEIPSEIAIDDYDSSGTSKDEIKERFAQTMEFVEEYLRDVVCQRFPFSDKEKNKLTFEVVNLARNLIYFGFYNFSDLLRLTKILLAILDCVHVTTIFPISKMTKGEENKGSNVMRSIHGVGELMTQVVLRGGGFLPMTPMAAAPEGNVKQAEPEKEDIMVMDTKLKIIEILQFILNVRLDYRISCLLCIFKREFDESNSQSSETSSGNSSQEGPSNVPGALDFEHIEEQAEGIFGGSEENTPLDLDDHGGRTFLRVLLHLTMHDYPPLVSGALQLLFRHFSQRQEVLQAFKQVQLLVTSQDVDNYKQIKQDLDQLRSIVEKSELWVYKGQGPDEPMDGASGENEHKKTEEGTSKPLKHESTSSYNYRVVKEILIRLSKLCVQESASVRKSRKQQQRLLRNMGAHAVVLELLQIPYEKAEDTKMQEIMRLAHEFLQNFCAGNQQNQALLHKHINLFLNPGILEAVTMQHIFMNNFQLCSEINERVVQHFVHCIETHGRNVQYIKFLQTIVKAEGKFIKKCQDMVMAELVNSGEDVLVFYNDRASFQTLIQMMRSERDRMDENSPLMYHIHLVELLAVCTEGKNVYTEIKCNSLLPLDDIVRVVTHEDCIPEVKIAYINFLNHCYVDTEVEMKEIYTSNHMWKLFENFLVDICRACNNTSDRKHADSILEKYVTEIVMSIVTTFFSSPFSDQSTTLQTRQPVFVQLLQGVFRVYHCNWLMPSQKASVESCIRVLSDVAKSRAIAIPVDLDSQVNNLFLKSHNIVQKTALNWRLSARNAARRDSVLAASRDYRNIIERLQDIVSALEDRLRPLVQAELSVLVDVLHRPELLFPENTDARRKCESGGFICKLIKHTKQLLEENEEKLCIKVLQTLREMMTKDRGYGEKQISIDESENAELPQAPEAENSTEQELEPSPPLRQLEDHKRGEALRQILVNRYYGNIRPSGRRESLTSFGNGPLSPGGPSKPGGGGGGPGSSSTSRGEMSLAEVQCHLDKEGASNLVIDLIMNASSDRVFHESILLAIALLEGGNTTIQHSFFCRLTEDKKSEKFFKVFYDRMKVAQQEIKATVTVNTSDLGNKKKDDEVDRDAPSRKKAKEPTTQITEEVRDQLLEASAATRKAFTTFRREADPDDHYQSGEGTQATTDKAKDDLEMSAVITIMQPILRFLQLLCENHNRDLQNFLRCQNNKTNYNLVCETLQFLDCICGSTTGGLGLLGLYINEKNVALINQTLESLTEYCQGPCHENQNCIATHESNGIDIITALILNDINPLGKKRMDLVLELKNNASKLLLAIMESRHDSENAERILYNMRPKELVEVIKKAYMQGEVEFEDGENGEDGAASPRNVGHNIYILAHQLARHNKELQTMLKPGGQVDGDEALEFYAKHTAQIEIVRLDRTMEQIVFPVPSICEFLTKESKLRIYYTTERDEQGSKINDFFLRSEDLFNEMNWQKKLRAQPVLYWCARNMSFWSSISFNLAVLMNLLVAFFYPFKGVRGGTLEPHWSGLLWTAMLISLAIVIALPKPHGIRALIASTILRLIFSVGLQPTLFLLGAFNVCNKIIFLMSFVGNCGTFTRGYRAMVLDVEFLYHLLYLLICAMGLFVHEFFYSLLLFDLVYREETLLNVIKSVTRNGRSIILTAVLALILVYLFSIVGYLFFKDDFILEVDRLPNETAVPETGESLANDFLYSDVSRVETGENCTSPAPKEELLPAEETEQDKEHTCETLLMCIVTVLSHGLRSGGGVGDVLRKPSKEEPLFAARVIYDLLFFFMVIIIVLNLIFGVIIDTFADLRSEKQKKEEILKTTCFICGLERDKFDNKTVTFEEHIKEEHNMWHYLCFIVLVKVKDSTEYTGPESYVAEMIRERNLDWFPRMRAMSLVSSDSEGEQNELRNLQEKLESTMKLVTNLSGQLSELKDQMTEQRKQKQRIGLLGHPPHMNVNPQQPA

| effect of a mutation on the interaction | Substance |
| --- | --- |
| decreasing interaction | Inositol 1,4,5-trisphosphate-gated calcium channel ITPR1 (Mus musculus), P11881 C2496S |
| decreasing interaction | Inositol 1,4,5-trisphosphate-gated calcium channel ITPR1 (Mus musculus), P11881 C2504S |
